Source: patent US20160243251

Key:
Experiment in all cases: FP
[1] = test system: KRRRC(-TMR)-NH2 (LKLRLRLRLC(-TMR)-NH2) (synthetic); conditions: 2 mM NaCl, pH 7.4; p253 text gives 46 ± 9
[2] = test system: T1, TMR-(CH2)5-DKDRDRDR-NH2 (synthetic); conditions: 2 mM NaCl, pH 7.4
T1 sequence: KRRR

[3] = test system: T2, TMR-(CH2)5-KRRR-NH2 (L) (synthetic); conditions: 2 mM NaCl, pH 7.4
T2 sequence: KRRR

[4] = test system: T3, TMR-DKDRDRDR-NH2 (synthetic); conditions: 2 mM NaCl, pH 7.4
T3 sequence: KRRR

[5] = test system: TMR-DRDRDRDK-NH2 (synthetic); conditions: 2 mM NaCl, pH 7.4
[6] = test system: TMR-KKKK-NH2 (TMR-LKLKLKLK-NH2) (synthetic); conditions: 2 mM NaCl, pH 7.4
[7] = test system: T4, TMR-KRRR (TMR-LKLRLRLR, C-terminal carboxylate) (synthetic); conditions: CITED Xiong et al; pH 7.4; DNA assumed same 30-mer; cited from earlier work
T4 sequence: KRRR

[8] = test system: T5, TMR-KRRR-NH2 (TMR-LKLRLRLR-NH2) (synthetic); conditions: 2 mM NaCl, pH 7.4
T5 sequence: KRRR

[9] = test system: T6, TMR-LKDRLRDR-NH2 (synthetic); conditions: 2 mM NaCl, pH 7.4
T6 sequence: KRRR

[10] = test system: TMR-LRL-LRL-LRL-LRL-NH2 (tetra L-homo-arginine) (synthetic); conditions: 2 mM NaCl, pH 7.4
[11] = test system: TMR-LRS-LRS-LRS-LRS-NH2 (tetra L-2-amino-3-guanidinopropionic acid) (synthetic); conditions: 2 mM NaCl, pH 7.4
[12] = test system: TMR-RRRK-NH2 (TMR-LRLRLRLK-NH2) (synthetic); conditions: 2 mM NaCl, pH 7.4
[13] = test system: TMR-RRRR (TMR-LRLRLRLR, C-terminal carboxylate) (synthetic); conditions: CITED Xiong et al; pH 7.4; DNA assumed same 30-mer; cited from earlier work
[14] = test system: TMR-RRRR-NH2 (TMR-LRLRLRLR-NH2) (synthetic); conditions: 2 mM NaCl, pH 7.4
[15] = test system: TMR-β3Kβ3Rβ3Rβ3R-NH2 (synthetic); conditions: 2 mM NaCl, pH 7.4
[16] = test system: TMR-β3Rβ3Rβ3Rβ3K-NH2 (synthetic); conditions: 2 mM NaCl, pH 7.4

## GACGACTAGGACGACGACGAGGATGACGAC (double strand) [30-mer dsDNA]
[1]
  Kd: 0.054 µM
[2]
  Kd: 0.047 µM
[3]
  Kd: 0.046 µM
[4]
  Kd: 0.044 µM
[5]
  Kd: 0.037 µM
[6]
  Kd: 0.053 µM
[7]
  Kd: 0.197 µM
[8]
  Kd: 0.046 µM
[9]
  Kd: 0.036 µM
[10]
  Kd: 0.013 µM
[11]
  Kd: 0.129 µM
[12]
  Kd: 0.028 µM
[13]
  Kd: 0.236 µM
[14]
  Kd: 0.031 µM
[15]
  Kd: 0.041 µM
[16]
  Kd: 0.049 µM
